Consider eleven variants from IntAct's records for PubMed 25910212.

The labels stand for the following.
B1: Beta-crystallin A4 (Homo sapiens), P53673 (parent)
chain: MTLQCTKSAGPWKMVVWDEDGFQGRRHEFTAECPSVLELGFETVRSLKVLSGAWVGFEHAGFQGQQYILERGEYPSWDAWGGNTAYPAERLTSFRPAACANHRDSRLTIFEQENFLGKKGELSDDYPSLQAMGWEGNEVGSFHVHSGAWVCSQFPGYRGFQYVLECDHHSGDYKHFREWGSHAPTFQVQSIRRIQQ
partner: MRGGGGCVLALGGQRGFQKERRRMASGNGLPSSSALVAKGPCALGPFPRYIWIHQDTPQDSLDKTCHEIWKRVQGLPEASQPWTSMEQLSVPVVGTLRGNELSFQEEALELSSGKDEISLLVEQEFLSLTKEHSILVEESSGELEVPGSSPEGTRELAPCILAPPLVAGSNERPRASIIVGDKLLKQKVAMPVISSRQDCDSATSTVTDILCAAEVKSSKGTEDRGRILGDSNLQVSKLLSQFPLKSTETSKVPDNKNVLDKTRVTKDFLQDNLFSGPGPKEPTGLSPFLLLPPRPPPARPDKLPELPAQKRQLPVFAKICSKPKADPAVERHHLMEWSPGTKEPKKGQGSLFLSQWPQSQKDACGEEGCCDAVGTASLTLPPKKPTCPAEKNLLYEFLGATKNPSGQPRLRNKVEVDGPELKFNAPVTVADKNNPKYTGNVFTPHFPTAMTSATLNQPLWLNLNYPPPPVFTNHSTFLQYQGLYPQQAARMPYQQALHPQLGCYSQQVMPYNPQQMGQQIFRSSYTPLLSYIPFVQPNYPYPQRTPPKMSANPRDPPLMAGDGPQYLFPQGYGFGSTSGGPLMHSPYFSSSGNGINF
B2: DNA excision repair protein ERCC-1 (Homo sapiens), P07992-3 (parent)
chain: MDPGKDKEGVPQPSGPPARKKFVIPLDEDEVPPGVAKPLFRSTQSLPTVDTSAQAAPQTYAEYAISQPLEGAGATCPTGSEPLAGETPNQALKPGAKSNSIIVSPRQRGNPVLKFVRNVPWEFGDVIPDYVLGQSTCALFLSLRYHNLHPDYIHGRLQSLGKNFALRVLLVQVDVKDPQQALKELAKMCILADCTLILAWSPEEAGRYLETYKAYEQKPADLLMEKLEQDFVSRVTECLTTVKSVNKTDSQTLLTTFGSLEQLIAASREDLALCPGLGPQKVRALGKNPRSWGKERAPNKHNLRPQSFKVKKEPKTRHSGFRL
partner: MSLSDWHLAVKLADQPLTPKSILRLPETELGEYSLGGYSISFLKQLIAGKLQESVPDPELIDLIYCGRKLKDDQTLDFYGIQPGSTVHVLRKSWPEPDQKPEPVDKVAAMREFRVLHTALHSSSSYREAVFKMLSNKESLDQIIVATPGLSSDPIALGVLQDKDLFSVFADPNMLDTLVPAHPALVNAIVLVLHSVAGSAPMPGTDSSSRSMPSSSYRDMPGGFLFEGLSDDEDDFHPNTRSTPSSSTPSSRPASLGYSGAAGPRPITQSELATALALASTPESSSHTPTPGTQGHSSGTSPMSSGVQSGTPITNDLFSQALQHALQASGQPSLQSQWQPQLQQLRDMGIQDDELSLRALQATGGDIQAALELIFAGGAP
B3: Arylsulfatase A (Homo sapiens), P15289 (parent)
chain: MGAPRSLLLALAAGLAVARPPNIVLIFADDLGYGDLGCYGHPSSTTPNLDQLAAGGLRFTDFYVPVSLCTPSRAALLTGRLPVRMGMYPGVLVPSSRGGLPLEEVTVAEVLAARGYLTGMAGKWHLGVGPEGAFLPPHQGFHRFLGIPYSHDQGPCQNLTCFPPATPCDGGCDQGLVPIPLLANLSVEAQPPWLPGLEARYMAFAHDLMADAQRQDRPFFLYYASHHTHYPQFSGQSFAERSGRGPFGDSLMELDAAVGTLMTAIGDLGLLEETLVIFTADNGPETMRMSRGGCSGLLRCGKGTTYEGGVREPALAFWPGHIAPGVTHELASSLDLLPTLAALAGAPLPNVTLDGFDLSPLLLGTGKSPRQSLFFYPSYPDEVRGVFAVRTGKYKAHFFTQGSAHSDTTADPACHASSSLTAHEPPLLYDLSKDPGENYNLLGGVAGATPEVLQALKQLQLLKAQLDAAVTFGPSQVARGEDPALQICCHPGCTPRPACCHCPDPHA
partner: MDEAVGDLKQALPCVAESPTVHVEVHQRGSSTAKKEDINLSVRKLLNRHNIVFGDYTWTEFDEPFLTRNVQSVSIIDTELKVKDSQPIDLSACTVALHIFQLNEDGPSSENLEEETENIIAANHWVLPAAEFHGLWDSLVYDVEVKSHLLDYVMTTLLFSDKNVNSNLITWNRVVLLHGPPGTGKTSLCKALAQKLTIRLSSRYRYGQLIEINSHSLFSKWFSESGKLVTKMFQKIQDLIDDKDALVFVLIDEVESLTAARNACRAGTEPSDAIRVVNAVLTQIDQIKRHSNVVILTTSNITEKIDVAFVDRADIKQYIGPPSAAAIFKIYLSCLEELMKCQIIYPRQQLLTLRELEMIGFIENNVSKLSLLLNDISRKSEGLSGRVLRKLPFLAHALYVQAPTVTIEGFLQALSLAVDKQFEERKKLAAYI
B4: DNA mismatch repair protein Mlh1 (Homo sapiens), P40692 (parent)
chain: MSFVAGVIRRLDETVVNRIAAGEVIQRPANAIKEMIENCLDAKSTSIQVIVKEGGLKLIQIQDNGTGIRKEDLDIVCERFTTSKLQSFEDLASISTYGFRGEALASISHVAHVTITTKTADGKCAYRASYSDGKLKAPPKPCAGNQGTQITVEDLFYNIATRRKALKNPSEEYGKILEVVGRYSVHNAGISFSVKKQGETVADVRTLPNASTVDNIRSIFGNAVSRELIEIGCEDKTLAFKMNGYISNANYSVKKCIFLLFINHRLVESTSLRKAIETVYAAYLPKNTHPFLYLSLEISPQNVDVNVHPTKHEVHFLHEESILERVQQHIESKLLGSNSSRMYFTQTLLPGLAGPSGEMVKSTTSLTSSSTSGSSDKVYAHQMVRTDSREQKLDAFLQPLSKPLSSQPQAIVTEDKTDISSGRARQQDEEMLELPAPAEVAAKNQSLEGDTTKGTSEMSEKRGPTSSNPRKRHREDSDVEMVEDDSRKEMTAACTPRRRIINLTSVLSLQEEINEQGHEVLREMLHNHSFVGCVNPQWALAQHQTKLYLLNTTKLSEELFYQILIYDFANFGVLRLSEPAPLFDLAMLALDSPESGWTEEDGPKEGLAEYIVEFLKKKAEMLADYFSLEIDEEGNLIGLPLLIDNYVPPLEGLPIFILRLATEVNWDEEKECFESLSKECAMFYSIRKQYISEESTLSGQQSEVPGSIPNSWKWTVEHIVYKALRSHILPPKHFTEDGNILQLANLPDLYKVFERC
B5: Phakinin (Homo sapiens), Q13515 (parent)
chain: MSERRVVVDLPTSASSSMPLQRRRASFRGPRSSSSLESPPASRTNAMSGLVRAPGVYVGTAPSGCIGGLGARVTRRALGISSVFLQGLRSSGLATVPAPGLERDHGAVEDLGGCLVEYMAKVHALEQVSQELETQLRMHLESKATRSGNWGALRASWASSCQQVGEAVLENARLMLQTETIQAGADDFKERYENEQPFRKAAEEEINSLYKVIDEANLTKMDLESQIESLKEELGSLSRNYEEDVKLLHKQLAGCELEQMDAPIGTGLDDILETIRIQWERDVEKNRVEAGALLQAKQQAEVAHMSQTQEEKLAAALRVELHNTSCQVQSLQAETESLRALKRGLENTLHDAKHWHDMELQNLGAVVGRLEAELREIRAEAEQQQQERAHLLARKCQLQKDVASYHALLDREESG

Variants of B1 are the subject of the first assay. The following applies: with ca094_human C1orf94, Q6P1W5.
In the case of L69P, the “effect of a mutation on the interaction” value is listed as “disrupting interaction strength”.

In the case of V36M, the “effect of a mutation on the interaction” value is recorded as “disrupting interaction strength”. On the same count and under the same terms, then F94S, with “disrupting interaction strength”.

A further assay covers variants of B2. As to conditions: with ubl7_human UBL7, Q96S82.
Consider F231L, for which the “effect of a mutation on the interaction” value was “with no effect”.

Variants of B3 are the subject of a further assay. The following applies: with pch2_human TRIP13, Q15645.
For Y201C, the “effect of a mutation on the interaction” value was “with no effect”.

N350S: the “effect of a mutation on the interaction” value is recorded as “with no effect”.

The variants in a further assay derive from B4. The following applies: with AP2B1, P63010-2.
S44F: the “effect of a mutation on the interaction” value is “disrupting interaction strength”. As to G244D, the “effect of a mutation on the interaction” value is on record as “with no effect”. Same read-out and setting: then R472I, with “with no effect”.

The next assay covers variants of B4. The following applies: with ccd33_human CCDC33, Q8N5R6.
For the variant S44F, the “effect of a mutation on the interaction” value is “disrupting interaction strength”.

In the case of G244D, the “effect of a mutation on the interaction” value is on record as “disrupting interaction strength”. Regarding R472I, the “effect of a mutation on the interaction” value is “with no effect”.

Variants of B4 are the subject of a further assay. The following applies: with taso2_human TASOR2, Q5VWN6.
Turning to S44F, the “effect of a mutation on the interaction” value is given as “disrupting interaction strength”. On the same count and under the same terms, then G244D, with “disrupting interaction strength”; and R472I, with “with no effect”.

Another assay covers variants of B5. As to conditions: with atf4_human ATF4, P18848.
As for R339H, the “effect of a mutation on the interaction” value was “with no effect”.

In the case of A407D, the “effect of a mutation on the interaction” value was “with no effect”.

In a further assay the parent is B5. The following applies: with syce1_human SYCE1, Q8N0S2.
As for R339H, the “effect of a mutation on the interaction” value is “with no effect”. On the same count and under the same terms, then A407D, with “with no effect”.
